{"source": "the DeepSol protein solubility set", "data": [{"assay": "soluble on expression in E. coli; label from the status in PepcDB or PDB records", "values": [{"sequence": "MAISVFDLFSIGIGPSSSHTVGPMRAARMFARRLRNEELLDSVASVRVELYGSLGATGHGHGTPKAVLLGLEGDSPRTVDVESADDRVETIKSSGRISLLGDHEIAFAYDDDMVLHRRKALPYHANGMTLWAYDAEGAEVLTKTYYSVGGGFVVDEDAVGADRIVLDDTVLKYPFRTGDELLRLARETGLSISALMLENERAWRDEDEIREGLLEIWRVMRACVDRGMTREGILPGGLKVRRRAANTARKLRSEGDPQALAMEWITLYAMAVNEENAAGGRVVTAPTNGAAGIIPAVLHYYMNFVPGADEDGVVRFLLAAGAIGMLFKENASISGAEVGCQGEVGSACSMAAGALAEVLGGSPEQVENAAEIGMEHNLGLTCDPVGGLVQIPCIERNGMAAVKAVTAARMAMRGDGSHKVSLDKVIKTMKETGADMSVKYKETARGGLAVNIIEC", "soluble on expression in E. coli": "not soluble"}, {"sequence": "MAIYADNSYSIGNTPLVRLKHFGHNGNVVVKIEGRNPSYSVKCRIGANMVWQAEKDGTLTKGKEIVDATSGNTGIALAYVAAARGYKITLTMPETMSLERKRLLCGLGVNLVLTEGAKGMKGAIAKAEEIVASDPSRYVMLKQFENPANPQIHRETTGPEIWKDTDGKVDVVVAGVGTGGSITGISRAIKLDFGKQITSVAVEPVESPVISQTLAGEEVKPGPHKIQGIGAGFIPKNLDLSIIDRVETVDSDTALATARRLMAEEGILAGISSGAAVAAADRLAKLPEFADKLIVVILPSASERYLSTALFEGIEG", "soluble on expression in E. coli": "soluble"}, {"sequence": "MAKDIEISASESKFILEALRQNYRLDGRSFDQFRDVEITFGKEFGDVSVKMGNTKVHCRISCQIAQPYEDRPFEGLFVISTEISPMAGSQFENGNITGEDEVLCSRIIEKSVRRSGALDVEGLCIVAGSKCWAVRADVHFLDCDGGFIDASCIAVMAGLMHFKKPDITVHGEQIIVHPVNEREPVPLGILHIPICVTFSFFNPQDTEENIKGETNSEISIIDATLKEELLRDGVLTVTLNKNREVVQVSKAGGLPMDALTLMKCCHEAYSIIEKITDQILQLLKEDSEKRNKYAAMLTSENAREI", "soluble on expression in E. coli": "soluble"}, {"sequence": "MAKEFLIELGTEELPPTQLRTLAEAFAANFEAELKGAELAHEGVKWFAAPRRLALKVAALAESQSDKVVEKRGPAVSAAFDAEGNPTKAAQGWARGCGITVDQADRMVTDKGEWLLFKQEVKGQPTSEIVVELAAKALANLPIAKPMRWGNKTTQFIRPVKTLTMLMGSDLIEGEILGVASSRTIRGHRFMGEKEFTIDSAEQYPAILEERGKVMADYEARKAIILADAQKAAAAVGGIADLEDDLVEEVTSLVEWPVVLTAKFEEEFLKVPSEALVYTMKGDQKYFPVYDENKKLLPNFIFVSNIESKEPRYVIEGNEKVVRPRLADAEFFFNTDRKRPLIDRLPELEQAIFQQQLGTIKDKTDRITELAGYIAEQIGADVEKSKRAGLLAKCDLMTSMVFEFTDTQGVMGMHYARHDGEAEEVAVALNEQYMPRFAGDELPSNGVSTAVAMADKLDTIVGIFGIGQAPKGSDPFALRRASLGVLRIIVEYGYNLDLVDLVAKAKSLFGDRLTNDNVEQDVIEFMLGRFRAWYQDEGFSVDIIQAVLARRPTK", "soluble on expression in E. coli": "not soluble"}, {"sequence": "MAKENPFTPFSDWTKHWQQFFQNDFWGSIQPLLPSSNKPSSGMNIYKKDNELLVVISLPGLEKIEDAEVYVSYKTLEVKATINLNFKGFELVEEGLFQGQFQKTIPLPFAVKEDRIEATYHNGLLFIHLHRLIPDEPKKKIVIKKSE", "soluble on expression in E. coli": "not soluble"}, {"sequence": "MAKENPPIVFGPVLSRRFGKSLGVDLSPSKKQCNYNCIYCELGKAKPIERMEEVIKVETLINAIQNALNNLTTPIDVLTITANGEPTLYPHLLELIQSIKPFLKGVKTLILSNGSLFYEPKVQQALKEFDIVKFSLDAIDLKAFERVDKPYSKDINKILEGILRFSQIYQGQLVAEVLLIKGVNDSANNLKLIAAFLKQINIARVDLSTIDRPSSFKAPKLSEDELLKCSLFFEGLCVSLPKRSITQAKKLISCGIDELLALISRRPLSAEEAPLILDSNAFKHLETLLNHKQITIKKVGSLEFYCAFLEHHHHHH", "soluble on expression in E. coli": "not soluble"}, {"sequence": "MAKHHPLTDWLPTSKKEMEAKGWDEADVILFSGDAYVDHPSFGAAVVGRILEAEGLRVAIVPQPNWRDDLRDFRKLGRPRLFFGVSAGAMDSMVNKYTANRRLRSEDAYTPDRRSDMRPDYPTIVYTRILKELFPDVPVIVGGIEASLRRLTHYDYWQDKLLPGILYQSGADLLIYGMGELPLHEIAQRLIAGEPFDSLKSIRQIAYLVPKGKTPVPCENDRHLFSHEECLSDKRKQAQNFREIEIQSNRYEADRILQAVGDSTIVVNPPFPPMSTAQIDQSFDLPYTRLPHPRYKGKIISAYEMIKHSVNVHRGCFGGCAFCTISAHQGKFIASRSEASVLREVKEITEMEDFKGYLSDVGGPSANMYKMQGYDLSICKRCKKPSCIHPNVCPNLNADHRPLLDLLRRIDKNPKIKKSFIGSGVRMDLLLHNYKDKVLKKAADEYTEDLIVKHVSGRLKVAPEHSSDRVLNLMRKPPFRQFAEFTKRFQRINEAHGLRQQLIPYFISSHPGCTEEDMAELAILTKKLDFKLEQIQDFTPTPMTLATEMYYTGYHPYTLQPVYTAIKKEEKMRQHMFFFWYKREEADKIRRELHRIGRPDLIAKLFDRTTSSRNDRHTPPSTQPRKSKSKSRHS", "soluble on expression in E. coli": "not soluble"}, {"sequence": "MAKIILRHLIEIPVRYQEEFEARGLEDCRLDHALYALPGPTIVDLRKTRAAQSPPVDSAAETPPREGKSHFQILLDVVQFLPEDIIIQTFEGWLLIKAQHGTRMDEHGFISRSFTRQYKLPDGVEIKDLSAVLCHDGILVVEVKDPVGTK", "soluble on expression in E. coli": "soluble"}, {"sequence": "MAKILVFDEAARRALERGVNAVANAVKVTLGPRGRNVVLEKKFGSPTITKDGVTVAKEVELEDHLENIGAQLLKEVASKTNDVAGDGTTTATVLAQAIVREGLKNVAAGANPLALKRGIEKAVEAAVEKIKALAIPVEDRKAIEEVATISANDPEVGKLIADAMEKVGKEGIITVEESKSLETELKFVEGYQFDKGYISPYFVTNPETMEAVLEDAFILIVEKKVSNVRELLPILEQVAQTGKPLLIIAEDVEGEALATLVVNKLRGTLSVAAVKAPGFGDRRKEMLKDIAAVTGGTVISEELGFKLENATLSMLGRAERVRITKDETTIVGGKGKKEDIEARINGIKKELETTDSEYAREKLQERLAKLAGGVAVIRVGAATETELKEKKHRFEDALNATRAAVEEGIVPGGGVTLLRAISAVEELIKKLEGDEATGAKIVRRALEEPARQIAENAGYEGSVIVQQILAETKNPRYGFNAATGEFVDMVEAGIVDPAKVTRSALQNAASIGALILTTEAVVAEKPEKKESTPAFAGAGDMDF", "soluble on expression in E. coli": "soluble"}, {"sequence": "MAKKMKLSDITNMFAGMDVEALEGVTIEGDIEIDLGGLGGGFDPMLAAALGQESAVLAQHFARIAGMFGYPVGIGAPAAPAISPALAAPKLKDLIPAKFDVANIAEWATQIQEVPIGNTSADGGSRGKRVLVGGEKALPFFPDAPMPNRNQVTIDVFDMRIGLAKAVKENYDEVMDSPGEWAKKNVEKFNADMITIHLISTDPLVKDTPPKEAAKTVEEVLQAVDVPIAIGGSGNPQKDPEVLARAAEVAEGERCLLASASLNLDYAAIAEAALKYDHDVLSWTQLDMNAQKELNRKLMKQCNVPRDRIIMDPTTAALGYGLDYAYTNMERIRLAALMGDDELTFPMSSGTTNAWGARESWMVGSPLKEDSDWGPREYRGPIWEIVTGLSLAIAGNDLFMMMHPTSVAVLKQITQTLFGTIDTEQVDIANWIGAEV", "soluble on expression in E. coli": "not soluble"}, {"sequence": "MAKKTSSKGKLPPGPTPFPIIGNILQIDAKDISKSLTKFSECYGPVFTVYLGMKPTVVLHGYEAVKEALVDLGEEFAGRGSVPILEKVSKGLGIAFSNAKTWKEMRRFSLMTLRNFGMGKRSIEDRIQEEARCLVEELRKTNASPCDPTFILGCAPCNVICSVIFHNRFDYKDEEFLKLMESLHENVELLGTPWLQVYNNFPALLDYFPGIHKTLLKNADYIKNFIMEKVKEHQKLLDVNNPRDFIDCFLIKMEQENNLEFTLESLVIAVSDLFGAGTETTSTTLRYSLLLLLKHPEVAARVQEEIERVIGRHRSPCMQDRSRMPYTDAVIHEIQRFIDLLPTNLPHAVTRDVRFRNYFIPKGTDIITSLTSVLHDEKAFPNPKVFDPGHFLDESGNFKKSDYFMPFSAGKRMCVGEGLARMELFLFLTSILQNFKLQSLVEPKDLDITAVVNGFVSVPPSYQLCFIPIHHHH", "soluble on expression in E. coli": "soluble"}, {"sequence": "MAKKVAAQIKLQLPAGKATPAPPVGPALGQHGVNIMEFCKRFNAETADKAGMILPVVITVYEDKSFTFIIKTPPASFLLKKAAGIEKGSSEPKRKIVGKVTRKQIEEIAKTKMPDLNANSLEAAMKIIEGTAKSMGIEVVD", "soluble on expression in E. coli": "soluble"}, {"sequence": "MAKPPPGKSSGRGSINDDEGKIEVESGDIPHVTDTEIKDAAEKVRETAVSKGKSERDKAEGDYTIMNPDSMIRPDFASDEEIEEQAKWIPGRFEPYITPNPLDIETLVKRADTIATVFNCSGNNLTDSRLSGAYEIAMTRSDEWEGKAGENFEKYMASLPTIMGNHGKVANMLQIEAQKMIELYKNRRKGAKDIADQAVKAIEAIDDSKGEGLE", "soluble on expression in E. coli": "not soluble"}, {"sequence": "MAKRLSKQQLAKAIANTLETPPQPKAGRRRNRRRQRSAVQQLQPTQAGISMAASAQGAMVRIRNPAVSSSRGGITVLTHSELSAEIGVTDSIVVSSELVMPYTVGTWLRGVAANWSKYSWLSVRYTYIPSCPSSTAGSIHMGFQYDMADTVPVSVNQLSNLRGYVSGQVWSGSAGLCFINGTRCSDTSTAISTTLDVSKLGKKWYPYKTSADYATAVGVDVNIATPLVPARLVIALLDGSSSTAVAAGRIYCTYTIQMIEPTASALNN", "soluble on expression in E. coli": "soluble"}, {"sequence": "MAKSEEIIRERYKVMAPRIIKALNQRNFEAYFCETSEKAVECALSLIPQGASVAWGGSMTLEEIGLIQRLKEGNYQVIDRDTAKSQEERFSLMRQALLSDVYLASVNAMSEDGIMVNIDGRGNRISAIAFGPKTVILVVGMNKICRDLESARKRAHTYAAPNNALRLGLELPCTKTGCCFDCNKNNPSSICAQIVEMHSSIVPGRIKVILVGENLGL", "soluble on expression in E. coli": "soluble"}, {"sequence": "MAKSYDYQSAFDIIGPVMMGPSSSHTAGAVKIGNSARAILGDIPKNIEIHYYESFAQTHQGHGTDVAIVGGAMGYSTFDNRIKSSLEIAADDGIKIDIIEEEGDSIGQHPNCAYIKSSRNDGRYIEIIGISIGGGTIKIKGIHINGLEVDLNHGLPILVVDGNMTKAQVNHFINDINDMKLDCKDEFIKIDEDKCLVVIPLNKAISESTLNTIKEKYSDVNVSYIN", "soluble on expression in E. coli": "not soluble"}, {"sequence": "MAKVIRNRWVYRTDNKWTRYLPRRNDAVKEFDYDKNGASLKHYTEEISEEMRPKQASKLWMAWLYRDTSAEPKWTKKHVENLFGADFKVGRMEVFRNTELINTELWKIKHLIELRPVEFKNGVEPTEDDIFSTSLAPNGQCEVIQGGHVASENDLKLADGKQWTRKELGRDLNKKYHLYQSVYEQNVHTPNNITVVK", "soluble on expression in E. coli": "not soluble"}, {"sequence": "MAKYFGTDGIRGEVANSTITVEFTQKLGNAVGSLINQKNYPKFVIVGQDTRSSGGFLKFALVSGLNAAGIDVLDLGVVPTPVVAFMTVKHRAAAGFVITASHNKFTDNGIKLFSSNGFKLDDALEEEVEDMIDGDFIYQPQFKFGSYKILANAIDEYIESIYSRFAKFVNYKGKVVVDCAHGAASHNFEALLDKFGINYVSIASNPDGLNINVGCGATCVSNIKKAVKEQKADLGISLDGDADRIIIVDENGQEIDGDGILNILAQYSDICGGTNGIVGTQMTNMSYENHYRANKIPFIRSKVGDRYVLEDLVKYGYKIGGESSGHVINLNFGTTGDGLFTAIQLLAIFSQADKPVSEFKLQGELMQQTLINVPLTKKVAREDLQKVASDVNDVEKRLGNRGRVLLRPSGTEPVLRVMVEADDKSLATNEAEYLVEKVKQKLV", "soluble on expression in E. coli": "soluble"}, {"sequence": "MALAPHAVHRLYEYRKSISTKPFGARGKKLIRCPLCLLGEQFCTCSLRKQLTTQASFLLIMYNDEVLKPTNSGRLIADLIPDTHAFLWSRTDPAPELLALLSSDHYQPFLVFPAQYADQGQTVLSQVPMATLAKGKRPLLIMLDGSWREAIKMFRKSPYLQGLPILSFDPDTLATYALRKGSHDFQLGTAEVASLALAAMGEEANGKALTAWFDLFVESSLLGRNRRCREDILPISDFTNAFEVAYTAATP", "soluble on expression in E. coli": "not soluble"}]}]}
